Data taken from article PMC7949104.

Biological target: E5 C77S mutant
Test: SEC; analytical gel filtration, Superdex 75 10/300 GL, 0.5 ml/min, 50 mM phosphate buffer with 150 mM NaCl, in the presence of a reducing agent; mass from protein standards

stoichiometry N: 6
Substance: E5 C77S mutant (enzyme)
